Source: the RNAGym collection of RNA variant scans (doi:10.7554/elife.90254)

B1: LINE1-full (parent)
chain: UACGUAGGUGGUUUUCCCCUGAUAGUGCUAAGGGGGCCUGGAAGUUUGGACUGGGCAGAGCUCAACACAGCGUGGCAAAGUGGCUGUGGCUAGACUGCCUCUCUGGAUUCCUCGUCACUCAGCAGGGCAUCUCUGAGAGAAAUGCC

Variants of: B1
Experiment: self-cleavage, relative activity (ratio to wild type); higher = more cleavage; in vitro, sequencing; the parent is a self-cleaving ribozyme

In order of falling self-cleavage:
1. C71U C120U  2.76
2. U108G U134C  2.7
3. A78G G80A  2.49
4. U20C G40C  2.31
5. U9C G82A  2.23
6. A79U U102A  2.23
7. G53A A117G  2.04
8. U108C C118U  2.01
9. A121G A136U  1.97
10. A77G A136U  1.92
11. U46C A78C  1.9
12. U73C G126U  1.85
13. A42G U104C  1.81
14. U81C C146A  1.8
15. U23C U100C  1.79
16. U108C C128U  1.78
17. U45A G137U  1.77
18. G44C U115A  1.77
19. U46A U100C  1.75
20. G10A U112C  1.66
21. U39A A129U  1.65
22. G106A U112A  1.64
23. U29A U39G  1.58
24. U52A A138G  1.57
25. G34U U104A  1.53
26. U115A A136U  1.52
27. U108G  1.5
28. U104A U119C  1.47
29. G40A G74U  1.45
30. G48A A79G  1.43
31. U26G U108C  1.41
32. U5C U130C  1.4
33. U14C G21A  1.39
34. G27A A140G  1.38
35. C18A U132A  1.38
36. U109A U132C  1.37
37. A24G G144A  1.35
38. U9C A79G  1.35
39. A24U G122U  1.33
40. A77U A124U  1.27
41. G25A A43G  1.27
42. G127U A140G  1.27
43. U39C C113U  1.26
44. G33U C101U  1.26
45. U81C A124G  1.25
46. A77C G126A  1.25
47. U102C G125U  1.23
48. A22G A142G  1.23
49. U39C A140U  1.22
50. A43G  1.21
51. U12G A30G  1.2
52. U13G U108G  1.2
53. U15G U39A  1.19
54. G41U  1.19
55. G8A U12C  1.17
56. C38A U115C  1.14
57. U12C C19U  1.08
58. U9A A140U  1.08
59. C28A  1.07
60. G80C A141G  1.04
61. G40A A117G  1.03
62. G48A A124U  1.02
63. U46G U73C  1.02
64. U52C A142G  1.02
65. U26C G33U  1.01
66. U39C U143A  1.01
67. U47C A136G  0.99
68. U26A A117U  0.98
69. A43U A79G  0.97
70. G83A U109A  0.96
71. U20C U134A  0.96
72. U13A U112C  0.9
73. G4A U115C  0.9
74. U100A A138U  0.89
75. G7U A78G  0.88
76. G27U U47C  0.88
77. U5G U13C  0.83
78. U13C G33A  0.81
79. G25A U130C  0.8
80. G4A U14A  0.75
81. C37A U143C  0.75
82. U100A A142U  0.74
83. C3A U104A  0.7
84. U20A A22G  0.69
85. G54A G125U  0.69
86. U13A G35A  0.65
87. A64U U115C  0.63
88. G33U A59U  0.62
89. A22U A77U  0.62
90. C3A G106A  0.57
91. C98U A140G  0.57
92. U13G A30U  0.56
93. A2U U46A  0.51
94. A24G A94U  0.49
95. U87G A138U  0.48
96. U5C U26G  0.47
97. C113U U134A  0.47
98. U20A A64G  0.46
99. U91A U134C  0.45
100. U29C A65U  0.42
101. A6G G74A  0.4
102. C99U A117G  0.4
103. A50G A64U  0.39
104. C68U A78U  0.37
105. A64U C113U  0.28
106. A64G A124G  0.28
107. A64G A138U  0.27
108. U45G U87C  0.25
109. U15A A92G  0.25
110. A24G A67U  0.24
111. U23C C56U  0.23
112. A64G A136G  0.22
113. U96C U119C  0.22
114. A67G G72A  0.21
115. U14C C95U  0.21
116. G7C U85A  0.2
117. G21U A94G  0.18
118. G74A A94U  0.17
119. A57C U81G  0.16
120. A59G A77G  0.15
121. A67U A138U  0.15
122. U73C U96A  0.14
123. A59G U112C  0.13
124. U14C A67C  0.13
125. A59G G126A  0.12
126. U96C C128U  0.12
127. G88C A129G  0.12
128. A57U G139U  0.11
129. U96C G114A  0.11
130. C3A U87A  0.1
131. A30U A67U  0.1
132. U12C A69U  0.09
133. A57G U87A  0.08
134. C56G A129C  0.08
135. A57C U96C  0.08
136. A67G C95A  0.07
137. G88A U143A  0.07
138. U15C G93A  0.07
139. G97A G126U  0.07
140. U62C U119C  0.07
141. U62C G97C  0.06
142. U14A A69U  0.06
143. U96A G122A  0.06
144. U85C U91C  0.06
145. U85C C95U  0.06
146. G58A A129U  0.06
147. A64C A69U  0.05
148. C51G U96A  0.05
149. U85A G93A  0.05
150. U39A A65G  0.05
151. G89A G137A  0.05
152. A92G A94U  0.05
153. A64C A67G  0.04
154. A65G U73A  0.04
155. C66G  0.04
156. U62C U102A  0.04
157. U96A G105A  0.04
158. A92G C128A  0.04
159. U39C U85G  0.04
160. A57U U100A  0.03
161. A67U A136C  0.03
162. G60A A136G  0.02
163. G86A U108A  0.02
164. A65G G93A  0.02
165. U62C C111A  0.02
166. U85C A92U  0
167. A42G G89C  0
